From patent publication US20230037815A1 (CULLINAN THERAPEUTICS, published 2023) come the findings set out here.

Assay [1] has as its target T1, mouse serum albumin (mouse, UniProt P07724 25-608).
T1 construct: also called MSA
Nature of the assay: ratio of the Octet KD for mouse serum albumin to that for human serum albumin. A general note: BLI is a label-free optical method that tracks binding on a fibre tip over time.

The target of the next assay is protein A (UniProt P38507 37-327). Kind of assay: Octet HTX (ForteBio), HCAb on AHC sensor, 1:1 fit.
The target in another assay is cynomolgus serum albumin (cynomolgus, UniProt A2V9Z4 25-608). Nature of the assay: Octet HTX (ForteBio), HCAb on AHC sensor, 1:1 fit.
cynomolgus serum albumin, sequence (A2V9Z4 25-608 limits assumed): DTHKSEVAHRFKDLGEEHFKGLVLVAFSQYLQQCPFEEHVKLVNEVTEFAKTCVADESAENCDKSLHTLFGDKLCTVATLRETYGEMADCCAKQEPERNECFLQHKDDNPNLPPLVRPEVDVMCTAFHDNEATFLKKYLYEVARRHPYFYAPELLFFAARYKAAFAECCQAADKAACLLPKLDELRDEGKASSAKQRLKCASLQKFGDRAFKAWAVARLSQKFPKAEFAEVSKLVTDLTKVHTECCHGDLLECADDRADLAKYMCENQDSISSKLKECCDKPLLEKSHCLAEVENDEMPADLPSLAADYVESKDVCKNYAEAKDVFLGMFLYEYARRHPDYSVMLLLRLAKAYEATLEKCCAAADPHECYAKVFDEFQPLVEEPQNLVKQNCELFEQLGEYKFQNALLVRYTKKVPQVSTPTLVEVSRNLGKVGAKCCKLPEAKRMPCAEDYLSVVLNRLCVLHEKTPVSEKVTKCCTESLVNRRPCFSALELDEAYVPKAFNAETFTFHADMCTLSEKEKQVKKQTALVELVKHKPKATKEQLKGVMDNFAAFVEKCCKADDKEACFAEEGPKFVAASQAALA
In assay [2] the target is T1, mouse serum albumin. Kind of assay: Octet HTX (ForteBio), HCAb on AHC sensor, 1:1 fit.
Another assay has as its target T2, human serum albumin (human, UniProt P02768 25-609).
T2 construct: also called HSA
Nature of the assay: Octet HTX (ForteBio), HCAb on AHC sensor, 1:1 fit.

T1 sequence (P07724 25-608 limits assumed): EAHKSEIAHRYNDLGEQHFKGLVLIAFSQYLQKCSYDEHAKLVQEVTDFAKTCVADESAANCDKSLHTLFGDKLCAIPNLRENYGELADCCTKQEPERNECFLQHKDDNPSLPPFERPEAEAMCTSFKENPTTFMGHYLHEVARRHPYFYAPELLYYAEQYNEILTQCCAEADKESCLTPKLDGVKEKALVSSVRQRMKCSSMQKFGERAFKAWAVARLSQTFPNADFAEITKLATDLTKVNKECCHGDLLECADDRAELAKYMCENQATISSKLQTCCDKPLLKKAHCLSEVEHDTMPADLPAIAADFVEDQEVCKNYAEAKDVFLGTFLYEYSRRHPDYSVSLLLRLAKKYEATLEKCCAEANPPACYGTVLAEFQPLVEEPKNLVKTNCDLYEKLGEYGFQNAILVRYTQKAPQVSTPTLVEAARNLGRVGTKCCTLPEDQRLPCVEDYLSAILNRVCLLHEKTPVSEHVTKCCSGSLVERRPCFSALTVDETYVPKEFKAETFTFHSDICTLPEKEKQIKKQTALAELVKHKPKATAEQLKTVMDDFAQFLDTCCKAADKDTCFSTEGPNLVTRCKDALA

B1: CNG-HSA-117 (VHH)
VHH: KVQLVESGGGLVQPGNSLRLSCAASGFTFSSFGMSWVRQAPGKGLEWVSSISGSGSDTLYADSVKGRFTISRDNSKNTLYLQMNSLRAEDTAVYYCTIGGSLTRSSQGTLVTVSS
Broadly, the Kd is the free concentration of one partner at which half of the binding sites on the other are occupied at equilibrium, for simple one-to-one binding. As usually defined, the koff is the rate constant with which the complex falls apart. On to B1, for which the “Ratio of MSA-KD to HSA-KD” value with mouse serum albumin [1] was 8.07. Besides, the Kd was determined as 1.78 nM with protein A, 4.05 nM with cynomolgus serum albumin, 44.8 nM with mouse serum albumin [2] and 5.56 nM in the assay with human serum albumin. Also, the koff was found to be 0.0002 s⁻¹ with protein A, 0.000608 s⁻¹ in the assay with cynomolgus serum albumin, 0.00877 s⁻¹ with mouse serum albumin [2] and 0.000793 s⁻¹ with human serum albumin.

B2: CNG-HSA-107 (VHH)
VHH: KVQLLESGGGLVQPGGSLRLSCAASGFTFSSFGMSWVRQAPGKGLEWVSSISGSGSDTLYADSVRGRFTISRDNSKNTLYLQMNSLRAEDTAVYYCSIGGSLIRSSQGTLVTVSS
As to B2, the “Ratio of MSA-KD to HSA-KD” value in the assay with mouse serum albumin [1] was found to be 2.72. Also, the Kd with protein A stood at 3.09 nM; with cynomolgus serum albumin it was 13.3 nM; in the assay with mouse serum albumin [2] it was 45.6 nM; with human serum albumin, 16.8 nM. In addition, the off-rate (koff) came to 0.000333 s⁻¹ in the assay with protein A, 0.00182 s⁻¹ with cynomolgus serum albumin, 0.00851 s⁻¹ with mouse serum albumin [2] and 0.00238 s⁻¹ with human serum albumin.

B3: CNG-HSA-105 (VHH)
VHH: EVQLLESGGGLVQPGGSLRLSCAASGFVFSSFGMSWVRQAPGKGLEWVSSISGSGSDTLYADSVKGRFTISRDNSKNTLYLQMNSLRPEDTAVYYCTIGGSLSRSSQGTLVTVSS
On to B3, for which the “Ratio of MSA-KD to HSA-KD” value with mouse serum albumin [1] amounted to 10.1. In addition, the equilibrium dissociation constant (Kd) with protein A came out at 2.76 nM; with cynomolgus serum albumin, 12.7 nM; in the assay with mouse serum albumin [2] it was 154 nM; with human serum albumin, 15.2 nM. The koff in the assay with protein A amounted to 0.000297 s⁻¹; with cynomolgus serum albumin, 0.00163 s⁻¹; with mouse serum albumin [2] it was 0.0206 s⁻¹; in the assay with human serum albumin, 0.002 s⁻¹.

B4: CNG-HSA-111 (VHH)
VHH: KVQLVESGGGLVQPGGSLRLSCAASGFTFSSFGMSWVRQAPGKGLEWVSSISGSGSDTLYADSVEGRFTISRDNSKNTLYLQMNSLRAEDTAVYYCTIGGSLKQSSQGTLVTVSS
Regarding B4, the “Ratio of MSA-KD to HSA-KD” value with mouse serum albumin [1] was 1.23. Also, the dissociation constant (Kd) with protein A is 2.84 nM; with cynomolgus serum albumin, 6.13 nM; with mouse serum albumin [2] it was 10.2 nM; with human serum albumin, 8.35 nM. Moreover, the koff in the assay with protein A is 0.0002 s⁻¹; in the assay with cynomolgus serum albumin, 0.000884 s⁻¹; in the assay with mouse serum albumin [2], 0.00231 s⁻¹; with human serum albumin it was 0.00117 s⁻¹.

B5: CNG-HSA-104 (VHH)
VHH: KVQLLESGGGLVQPGGSLRLSCAASGFTFHSFGMSWVRQAPGKGLEWVSSISGSGSDTLYADSVKGRFTISRDNSKNTLYLQMNSLRPEDTAVYYCTIGGSLSRSSQGTLVTVSS
In the case of B5, in the assay with mouse serum albumin [1], the “Ratio of MSA-KD to HSA-KD” value was determined as 6.57. Further, the Kd was 1.7 nM with protein A, 6.1 nM in the assay with cynomolgus serum albumin, 50.6 nM with mouse serum albumin [2] and 7.71 nM with human serum albumin. For the same molecule, the off-rate constant (koff) is 0.0002 s⁻¹ in the assay with protein A, 0.000874 s⁻¹ with cynomolgus serum albumin, 0.0105 s⁻¹ with mouse serum albumin [2] and 0.00112 s⁻¹ in the assay with human serum albumin.

B6: CNG-HSA-101 (VHH)
VHH: KVQLVESGGGLVQPGGSLRLSCAASGFTFSSFGMTWVRQAPGKGLEWVSSISGSGSDTLYADSVRGRFTISRDNSKNTLYLQMNSLRAEDTAVYYCTIGGSLSPSSQGTLVTVSS
Turning to B6, the “Ratio of MSA-KD to HSA-KD” value with mouse serum albumin [1] turned out to be 3.17. For the same molecule, the equilibrium dissociation constant (Kd) with protein A is 1.84 nM; with cynomolgus serum albumin, 3.58 nM; with mouse serum albumin [2], 16.1 nM; with human serum albumin it was 5.07 nM. For the same molecule, the off-rate (koff) with protein A turned out to be 0.0002 s⁻¹; with cynomolgus serum albumin, 0.000532 s⁻¹; with mouse serum albumin [2], 0.00341 s⁻¹; with human serum albumin, 0.000716 s⁻¹.

B7: CNG-HSA-112 (VHH)
VHH: KVQLLESGGGLVQPGGSLRLSCAASGFTFPSFGMSWVRQAPGKGLEWVSSISGSGSDTLYADSVKGRFTISRDNAKTTLYLQMNSLRPEDTAVYYCTIGGSVSKSSRGTLVTVSS
B7: the “Ratio of MSA-KD to HSA-KD” value with mouse serum albumin [1] came to 7.9. The Kd in the assay with protein A is 3.44 nM; with cynomolgus serum albumin, 7.43 nM; with mouse serum albumin [2], 66.7 nM; in the assay with human serum albumin it was 8.45 nM. The koff with protein A turned out to be 0.000375 s⁻¹; in the assay with cynomolgus serum albumin, 0.00115 s⁻¹; in the assay with mouse serum albumin [2], 0.013 s⁻¹; with human serum albumin, 0.00136 s⁻¹.

B8: CNG-HSA-113 (VHH)
VHH: GVQLLESGGGLVQPGGSLRLSCAASGFTFSSFGMSWVRQAPGKGLEWVSSISGTGSDTLYADSVKGRFTISRDNSKNTLYLQMNSLRPEDTAVYYCTIGGSLRYSSQGTLVTVSS
Turning to B8, the “Ratio of MSA-KD to HSA-KD” value in the assay with mouse serum albumin [1] was determined as 3.38. The Kd with protein A amounted to 1.7 nM; with cynomolgus serum albumin it was 12.1 nM; with mouse serum albumin [2], 52 nM; with human serum albumin, 15.4 nM. Besides, the koff in the assay with protein A was 0.0002 s⁻¹; in the assay with cynomolgus serum albumin, 0.0017 s⁻¹; with mouse serum albumin [2] it was 0.0101 s⁻¹; with human serum albumin, 0.00214 s⁻¹.

B9: CNG-HSA-110 (VHH)
VHH: KVQLVESGGGLVQPGNSLRLSCAASGFTFSSFGMSWVRQAPGKGLEWVSSISGSGGDTLYADSAKGRFTISRDNSKNTLYLQMNSLRPEDTAVYYCTIGGSLSRSSQGTLVTVSS
In the case of B9, in the assay with mouse serum albumin [1], the “Ratio of MSA-KD to HSA-KD” value was determined as 6.82. Moreover, the Kd in the assay with protein A was determined as 3.67 nM; with cynomolgus serum albumin it was 5.2 nM; with mouse serum albumin [2] it was 38.9 nM; in the assay with human serum albumin, 5.7 nM. Moreover, the koff was found to be 0.000378 s⁻¹ with protein A, 0.000759 s⁻¹ in the assay with cynomolgus serum albumin, 0.00838 s⁻¹ with mouse serum albumin [2] and 0.000893 s⁻¹ with human serum albumin.

B10: CNG-HSA-109 (VHH)
VHH: KVQLVESGGGLVQPGNSLRLSCAASGFTFGSFGMSWVRQAPGKGPEWVSSISGSGSDTLYADSVKGRFTISRDNSKNTLYLQMNSLRPEDTAVYYCTIGGSLSRSSQGTLVTVSS
Take B10: the “Ratio of MSA-KD to HSA-KD” value in the assay with mouse serum albumin [1] came out at 3.4. Further, the Kd with protein A is 1.78 nM; with cynomolgus serum albumin it was 3.1 nM; with mouse serum albumin [2], 11.9 nM; in the assay with human serum albumin it was 3.5 nM. Besides, the dissociation rate constant (koff) in the assay with protein A worked out at 0.0002 s⁻¹; in the assay with cynomolgus serum albumin it was 0.000503 s⁻¹; with mouse serum albumin [2], 0.00284 s⁻¹; in the assay with human serum albumin, 0.000566 s⁻¹.

B11: CNG-HSA-108 (VHH)
VHH: KVQLVESGGGLVQPGGSLRLSCAASGFTFGSFGMSWVRQAPGKGLEWVSSISGSGADTLYADSVKGRFTISRDNSKNTLYLQMNSLRAEDTAVYYCTIGGSLRASSQGTLVTVSS
Consider B11, for which the “Ratio of MSA-KD to HSA-KD” value with mouse serum albumin [1] was 1.3. For the same molecule, the Kd amounted to 2.94 nM in the assay with protein A, 5.27 nM with cynomolgus serum albumin, 8.06 nM with mouse serum albumin [2] and 6.19 nM with human serum albumin. Besides, the koff with protein A came out at 0.000294 s⁻¹; with cynomolgus serum albumin it was 0.000794 s⁻¹; with mouse serum albumin [2] it was 0.00185 s⁻¹; with human serum albumin, 0.000958 s⁻¹.

B12: CNG-HSA-103 (VHH)
VHH: KVQLVESGGGLVQPGGSLRLSCAASGFTFSSFGMTWVRQAPGKGLEWVSSISGSGSDTLYADSVRGRFTISRDNSKNTLYLQMNSLRPEDTAVYYCTIGGSLSPSSQGTLVTVSS
On to B12, for which the “Ratio of MSA-KD to HSA-KD” value with mouse serum albumin [1] was 3.09. In addition, the Kd in the assay with protein A stood at 2.02 nM; with cynomolgus serum albumin, 3.62 nM; in the assay with mouse serum albumin [2], 15.1 nM; with human serum albumin, 4.89 nM. Besides, the koff was found to be 0.000221 s⁻¹ with protein A, 0.000541 s⁻¹ with cynomolgus serum albumin, 0.00324 s⁻¹ in the assay with mouse serum albumin [2] and 0.000742 s⁻¹ with human serum albumin.
